Assay [1] is described as follows: E. coli lysate screen of epPCR/DNA shuffling variants with CS0333. The class given is biochemical. The following applies: Detection Reagent, 1 mM ATP, 500 μM substrate, 3 mins. On the procedure: (§1) These experiments included lysing E. coli cells expressing each luciferase enzyme variant in Detection Reagent containing 1 mM ATP+500 μM substrate. The cell lysate was incubated at room temperature for 3 mins and luminescence was read. The raw luminescence reading was normalized to the on-plate luminescence of ATG-2889, which was used as a control in this screen.

Assay [2] is described as follows: E. coli lysate screen of epPCR/DNA shuffling variants with CS0280. It counts as biochemical. As to conditions: Detection Reagent, 1 mM ATP, 500 μM substrate, 3 mins. How it is done:
as §1

This note sets out measurements from patent publication US12545899B2, “Luciferase enzymes for use with thermostable luciferins in bioluminescent assays” (Promega Corporation, priority 2018, dated 2026).

B1: C4580B10: SEQ ID NO: 53; H244W+T344A+I396K+K107Q+S193T+V262A (protein)
chain: MADKNILYGPEPFYPLEDGTAGEQMFDALSRYAAIPGCIALTNAHTKENVLYEEFLKLSCRLAESFKKYGLKQNDTIAVCSENSLQFFLPVIASLYLGIIVAPVNDQYIERELIHSLGIVKPRIVFCSKNTFQKVLNVKSKLKSIETIIILDLNEDLGGYQCLNNFISQNSDSNLDVKKFKPYSFNRDDQVATIMFSSGTTGLPKGVMLTHKNIVARFSIAKDPTFGNAINPTSAILTVIPFHWGFGMMTTLGYFTCGFRVALMHTFEEKLFLQSLQDYKVESTLLVPTLMAFLAKSALVEKYDLSHLKEIASGGAPLSKEIGEMVKKRFKLNFVRQGYGLTEATSAVLITPKGDAKPGSTGKIVPLHAVKVVDPTTGKILGPNEPGELYFKGPMKMKGYYNNEEATKAIIDNDGWLRSGDIAYYDNDGHFYIVDRLKSLIKYKGYQVAPAEIEGILLQHPYIVDAGVTGIPDEAAGELPAAGVVVQTGKYLNEQIVQDYVASQVSTAKWLRGGVKFLDEIPKGSTGKIDRKVLRQMLEKHTNGHHHHHHHH
Take B1: the “Normalized luminescence (Mutant RLU/ATG2889 RLU) with CS0333” value in assay [1] amounted to 4.64. The “Normalized luminescence (Mutant RLU/ATG2889 RLU) with CS0280” value in assay [2] is reported as 9.35.

B2: C4588H8: SEQ ID NO: 58; H244W+T344A+I396K+K107Q+L305F (protein)
chain: MADKNILYGPEPFYPLEDGTAGEQMFDALSRYAAIPGCIALTNAHTKENVLYEEFLKLSCRLAESFKKYGLKQNDTIAVCSENSLQFFLPVIASLYLGIIVAPVNDQYIERELIHSLGIVKPRIVFCSKNTFQKVLNVKSKLKSIETIIILDLNEDLGGYQCLNNFISQNSDSNLDVKKFKPYSFNRDDQVASIMFSSGTTGLPKGVMLTHKNIVARFSIAKDPTFGNAINPTSAILTVIPFHWGFGMMTTLGYFTCGFRVVLMHTFEEKLFLQSLQDYKVESTLLVPTLMAFLAKSALVEKYDFSHLKEIASGGAPLSKEIGEMVKKRFKLNFVRQGYGLTEATSAVLITPKGDAKPGSTGKIVPLHAVKVVDPTTGKILGPNEPGELYFKGPMKMKGYYNNEEATKAIIDNDGWLRSGDIAYYDNDGHFYIVDRLKSLIKYKGYQVAPAEIEGILLQHPYIVDAGVTGIPDEAAGELPAAGVVVQTGKYLNEQIVQDYVASQVSTAKWLRGGVKFLDEIPKGSTGKIDRKVLRQMLEKHTNGHHHHHHHH
Turning to B2, the “Normalized luminescence (Mutant RLU/ATG2889 RLU) with CS0333” value in assay [1] is on record as 3.90. Also, the “Normalized luminescence (Mutant RLU/ATG2889 RLU) with CS0280” value in assay [2] turned out to be 6.56.
